Data: PMC7934871 (JCI Insight, 2021)
Non-standard residues stand in square brackets, D forms with d. No end group written: not given here. pY = N[C@@H](Cc1ccc(OP(=O)(O)O)cc1)C(=O)O

How the values were obtained:
[1] = test system: CRC patient primary tumor spheres
Description: TAMRA-acet.-STAT3 (red fluorescence) and PO-FAM-acet.-STAT3 (green fluorescence)
peptides were incubated with patient primary tumor sphere for 4 hours and the cell penetration
was visualized by confocal microscopy. Scale bar: 50 µm.
(D) The primary CRC tumor cells derived from PDX were treated with different concentrations of
PO- or PS-acet.-STAT3 peptide as indicated for 3 days. The cell viability was measured by
CellTiter Glo assay and normalized with vehicle (HBSS) treatment. Data represent 3
independent experiments (n=3). SD is shown. Unpaired Student’s t-test ****; P< 0.001; **, P<
(E) Gene expression of MYC, MMP9 and BIRC5 was detected by qPCR and normalized with
ACTB after vehicle, 1 µM of PO-or PS-acet.-STAT3 peptide treatment with CRC PDX tumor
cells. Data represent 3 independent experiments (n=3). SD is shown. One-way ANOVA. ****; P<

STAT3 = STAT3 (Homo sapiens, UniProt P40763); experiment: Binding of PS-Gp130 and STAT3, immunoprecipitation and Western blotting; parameters: endogenous in cells; settings: 1 μM, 4 hours prior to harvest
Description: Figure 8 PS-Gp130 and PS-MYC blocking peptides efficiently internalize into tumor cells to exert their functions. (A) For 1 hour 1 μM of PS-conjugated MYC (PS-MYC) and Gp130 (PS-Gp130) were incubated with cancer cells. PS-scramble MYC (PS-SC-MYC) was used as a control for PS-MYC. The peptide uptake was visualized by confocal microscopy and quantified by flow cytometry. Data are representative of 3 independent experiments (n = 3). (B) Upper panel: The binding of PS-Gp130 and STAT3 was examined by immunoprecipitation and Western blotting. PO-Gp130 was used as a control. For 4 hours prior to harvest, 1 μM of peptide was incubated with cells. Lower panel: PS-Gp130 inhibits IL-6–induced phosphorylation of STAT3 and p44/42 but not EGF-mediated signaling. […] (C) Gene expression of STAT3 targets was examined by quantitative PCR after the treatment with 1 μM of PS-Gp130 with or without IL-6 stimulation as described above. […] (D) A total of 1 μM of PS-SC-MYC or PS-MYC was incubated with cells for 48 hours before the gene expression of MYC targets was examined by quantitative PCR. […]
Whole cell lysates or tissue homogenates were prepared by using RIPA lysis buffer (50 mM Tris at pH 7.4, 150 mM NaCl, 1 mM EDTA, 0.5% NP-40, 1 mM NaF, 15% glycerol, and 20 mM β-glycerophosphate). […] Protein amounts were determined by BCA using a Thermo Fisher Scientific kit. […]

Chain of STAT3 (P40763 whole entry, species assumed): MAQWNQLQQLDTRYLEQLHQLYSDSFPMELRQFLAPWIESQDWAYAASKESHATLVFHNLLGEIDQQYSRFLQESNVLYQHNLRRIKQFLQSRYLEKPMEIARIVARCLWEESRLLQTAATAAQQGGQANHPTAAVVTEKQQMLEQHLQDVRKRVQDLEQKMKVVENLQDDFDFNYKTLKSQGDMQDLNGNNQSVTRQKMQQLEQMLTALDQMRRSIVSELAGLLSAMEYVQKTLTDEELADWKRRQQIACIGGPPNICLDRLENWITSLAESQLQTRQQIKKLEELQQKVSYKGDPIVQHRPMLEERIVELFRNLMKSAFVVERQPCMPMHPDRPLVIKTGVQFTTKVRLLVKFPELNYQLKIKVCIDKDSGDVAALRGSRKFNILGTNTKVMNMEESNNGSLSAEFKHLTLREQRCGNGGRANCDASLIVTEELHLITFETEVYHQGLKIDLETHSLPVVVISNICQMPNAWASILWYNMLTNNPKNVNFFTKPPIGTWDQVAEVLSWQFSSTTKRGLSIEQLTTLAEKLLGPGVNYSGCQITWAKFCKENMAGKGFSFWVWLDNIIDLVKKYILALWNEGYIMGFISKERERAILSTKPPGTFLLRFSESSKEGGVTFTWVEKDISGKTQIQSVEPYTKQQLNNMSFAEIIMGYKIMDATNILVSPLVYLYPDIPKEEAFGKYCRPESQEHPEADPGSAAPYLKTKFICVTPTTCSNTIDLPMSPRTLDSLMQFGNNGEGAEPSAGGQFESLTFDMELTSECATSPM

Substance	effects on cell proliferation and gene expression of STAT3 target genes in patient primary tumor spheres ([1]; 3 days, CellTiter Glo, 1 µM, qPCR of MYC, MMP9, BIRC5, n = 3)	cell permeability in patient primary tumor spheres ([1]; not told)	binding to STAT3 (STAT3)
PDIPKEEAFGK685(Ac)YCRPESQEHPC-linker-T*C*C*A*T*G*A*G*C*T*T*C*C*T*G*A*T*G*C*T [PS-acet.-STAT3 peptide]	significant inhibitory effects	high cell permeability	–
PS-Gp130: PS-conjugated Gp130 peptide (amino acids 901–910) with phospho-Tyr905 (MPKS[pY]LPQTV; also: phosphorothioate oligonucleotide conjugate; UniProt P40189 901-910, looked up, fragment)	–	–	strongly bound
